Data taken from patent publication US11994512B2, “Single-cell genomic methods to generate ex vivo cell systems that recapitulate in vivo biology with improved fidelity” (Massachusetts Institute of Technology, priority 2018, dated 2024).

B1: Q920F6 (protein, UniProt Q920F6 1-1248, looked up)
chain: MGHLELLLVENFKSWRGRQVIGPFKRFTCIIGPNGSGKSNVMDALSFVMGEKTTNLRVKNIQELIHGAHTGKPVSSSASVTIIYIEDSGEEKTFTRIIRGGCSEYHFGDKPVSRSVYVAQLENIGIIVKAQNCLVFQGTVESISMKKPKERTQFFEEISTSGEFIGEYEAKKKKLQKAEEDAQFHFNVKKNVAAERKHAKIEKEEAEHYQNLLEELKINKIQLMLFQLYYNEEKINVLNTELEQMDGNLSVVKDTLSHHENIFKAKKKDYGMLTRQLQQTAKELKSVEAILNQKRPQYIKAKENTSHHLKKLDLSKKLITDNEKQCSKQEDGIRALVAELADLDRAWKSFEKQMEEKILQKGRDIELENSQLDRYKLLKEQVRRKVGIMTQQLEKLQWEQKAEKERLAFEKRRHGDTQGNLKQIKEQIEEHKKRIEKLEEYTKTCMDCLEDKKQQEEALKKEIENTKSRMSEVNEELSLIRNELQNAGIDNHEGKRQQKRAEVLEHLKRLYPDSVFGRLLDLCHPIHKKYQLAVTKLFGRYMVAIVVASEKIAKDCIRFLKAERAEPETFLALDYLDIKPINERLREIKGCKMMIDVIKTQFPQLKKVIQFVCGNGLVCETVEEARHIAFGGPERRKAVALDGTLFLKSGVISGGSSDLKHKALCWDEKELHNLRDKRSQLVQELKELMKTLRKETDLKQIQTLVQGTNTRLKYSQNELEMIKKKHLATFYREQSQLQSELLNIDSQCTMLSEGINKQQQKIEEFQDKIDEVEDDIFQDFCEEIGVENIREFENKHVKQQQENDQKRLEFEKQKTRLNIQLEYSRNQLKKKLNNIDTLKTTIQKGKEDIDNLKKTEEECLKIVEELMVKQEQIKEVLATQSSNIEKIHIQIEEERKKVLAVDREVGKLQKEVVIIQGSLEQKLLEKHNLLLDCKVQDIDISLVLGSLEDIIEMELTETESTQATADIYEKEASIQIDYSPLREDLKALQSDKEVEAHLTLLLQQVASQENTLLKTTAPNLRAQENLKTVRDKFQESADVFEASRKEARICRQEFEQVKRRRYDAFSQCFEHISVSIDQIYKKLCRNNSAQAFLSPENPEEPYLDGISYNCVAPGKRFMPMDNLSGGEKCVAALALLFAVHSFRPAPFFVLDEVDAALDNTNIGKVSSYIKEQSQEQFQMIIISLKEEFYSKADALIGVYPEHNECMFSHVLTLDLSKYPDTEDQEGSRSHRKPRVPRVSMSPKSPQSR
modifications: full-length
B2: Q99LD8 (protein, UniProt Q99LD8 1-285, looked up)
chain: MGTPGEGLGRCSHALIRGVPESLASGEGAGAGLPALDLAKAQREHGVLGGKLRQRLGLQLLELPPEESLPLGPLLGDTAVIQGDTALITRPWSPARRPEVDGVRKALQDLGLRIVEMGDENATLDGTDVLFTGREFFVGLSKWTNHRGAEIVADTFRDFAVSTVPVSGSSHLRGLCGMGGPRTVVAGSSEAAQKAVRAMAALTDHPYASLTLPDDAASDCLFLRPGLPGATPFLLHRGGGDLPNSQEALQKLSDVTLVPVSCSELEKAGAGLSSLCLVLSTRPHC
modifications: full-length
B3: Q99LZ3 (protein, UniProt Q99LZ3 1-223, looked up)
chain: MTEVLDLHGQDSDGGSEEMVLTPAELIEKLEQAWMNEKFAPELLESKAEIVECVMEQLEHMEENLRRAKKGDLKVSIHRMEMERIRYVLSSYLRCRLMKIEKFFPHILEKEKVRSEGEPSSLSPEEFVFAKEYMDHTETHFKNVALKHMPPNLQKVDLLRAVPKPDLDSYVFLRVKERQENILVEPEADEQRDYVIDLEVGSQHLIRYKTIAPLVASGAVQLI
modifications: full-length
B4: Q921X9 (protein, UniProt Q921X9 1-517, looked up)
chain: MARAWGLLLAIGVVLPTWLSSTKVSSLIERISDPKDLKKLLRTRNNVLVLYSESEVAAESHLKLLSTVAQAVKGQGTVCWVDCGDAESRKLCKKMKVDLSPKDKKIELFHYQDGAFHMQYDRAVTLKSIVAFLKDPKGPPLWEEDPGAKDVVHIDSEKDFRRLLKREEKPLLMMFYAPWCSMCKRIMPHFQKAATQVRGHIVLAGMNVYPSEFENIKEEYNVRGYPTICYFEKGRFLFPYENYGSTAEDIVEWLKNPLPPQPQVPETPWADEGGSVYHLTDEDFDQFVKEHSSVLVMFHAPWCGHCKKMKPEFESAAEVLHGDAESSGVLAAVDATVNEALAGRFHISAFPTLKYFKNGEQQAVPALRTKKKFIEWMQNPEAPPPPEPTWEEQQTSVLHLVGDNFRDTLKKKKHTLVMFYAPWCPHCKKVIPHFTATADAFKEDRKIACAAVDCVKDKNQDLCQQEAVKAYPTFHYYHYGKLVEKYESDRTELGFTSFIRTLREGDLKRLEKRREEL
modifications: full-length
B5: Q99M54 (protein, UniProt Q99M54 1-266, looked up)
chain: MGSTQSVSGTPARPLPRNKQVARVADPRSPSAGIQRTPIQVESSPQPSLPAEQLNGLKQAQDPDPRSPTLGIARTPMKISGPDPQCSLVKELSEVLETEASESISSPELALPRETPLFYDLDLSSDPQLSPEDQLLPWSQAELDPKQVFTKEEAKQSAETIAASQNSDKPSRDPETPQSSGSKRSRRKANSKVLGRSPLTILQDDNSPGTLTLRQGKRPSALSENVKDLKEGVVLGTGRFLKAGGGAREPNQDHDKENQHFALLES
modifications: full-length
B6: Q99M01 (protein, UniProt Q99M01 1-451, looked up)
chain: MVCLALVRAAYEHIYLVRKVSHACRCHQHRAWSSKPAASQSAVQGAPGSVLEILGKSYPQDDHTNLTQKVLSKVGRNLHNQKFHPLWLIKERVKEHFYQQYMVRSRTPLFSVYDQLPPVVTTWQNFDSLLIPADHPSRKKGDNYYLNRAHMLRAHTSAHQWDLLHAGLNAFLVVGDVYRRDQIDCQHYPVFHQLEGVRLFSKHELFAGVKDGESLQLFEEGSRSAHKQETHTMEAVKLVEFDLKQVLTRLVTHLFGDGLEVRWVDCYFPFTHPSFEMEINFRGEWLEVLGCGVMEQQLVNSAGAQDRIGWAFGLGLERLAMVLYDIPDIRLFWSEDERFLKQFLLSDINQSVKFQPLSKYPAVFNDISFWLPSENYTENDFYDIVRTVGGDLVEKVDLIDKFEHPKTHRTSHCYRITYRHMERTLSQREVGNVHQAVQEAAVQLLGVEGRF
modifications: full-length
B7: Q99PG0 (protein, UniProt Q99PG0 1-398, looked up)
chain: MGKTISLLISVVLVAYYLYIPLPDAIEEPWKVVWETAFVKIGTDLASFGELLGISHFMETIQLLMSFQEVPPTSDEHVTVMETAFDSVPVRIYIPKRKSMALRRGLFYIHGGGWCLGSAAHFSYDTLSRWTAHKLDAVVVSTDYGLAPKHHFPRQFEDVYRSLRWFLQEDVLEKYGVDPRRVGVSGDSAGGNLAAAVTQQLIQDPDVKIKLKVQALIYPALQALDTNVPSQQEGSHFPVLTRSLMVRFWSEYFTTDRGLEKAMLLNQHVPMESSHLLQFVNWSSLLPERYKKSPVYKNPTPGSSELAQKYPGFIDVKACPLLANDNILHHLPKTYIITCQYDVLRDDGLMYVKRLQNVGVHVTHHHVEDGFHGTFSFPGLKLSERMKNQYLSWLIKNL
modifications: full-length
B8: Q91Y74 (protein, UniProt Q91Y74 1-333, looked up)
chain: MTSKSHWKLLALALVLVVVMVWYSISREDRYIEFFYFPISEKKEPCFQGEAERQASKIFGNRSREQPIFLQLKDYFWVKTPSTYELPFGTKGSEDLLLRVLAITSYSIPESIKSLECRRCVVVGNGHRLRNSSLGGVINKYDVVIRLNNAPVAGYEGDVGSKTTIRLFYPESAHFDPKIENNPDTLLVLVAFKAMDFHWIETILSDKKRVRKGFWKQPPLIWDVNPKQVRILNPFFMEIAADKLLSLPIQQPRKIKQKPTTGLLAITLALHLCDLVHIAGFGYPDASNKKQTIHYYEQITLKSMAGSGHNVSQEAIAIKRMLEMGAVKNLTYF
modifications: full-length
B9: Q921T2 (protein, UniProt Q921T2 1-595, looked up)
chain: MAGERWQAEGPGEGWAIYVTPRAPIREGRRRLDPRNGDSSDAPAYGAHPSRRGRREVRFSEEPAEVYGDFEPRAAKERSPGGRRTPPEKFRPASAGEEVRESAYNLRSRPRRQRRAQEAEEMKTRRSARLEQHSQQPQLSPATSGRGLRDSPSSSEDREEDEPSSRPVTSQTASKKTLRTPEASVMNEDPISNLCRPPLRSPRLDSTYQTNGNTKTNEREATIVQQVNFFEEGETEDDLESSYSDITIRARSSDSLESRDEATPAAGNHPDSLRGLPHNQDFPAHENQPLLLTSGCQENPQEWVDRAVRMRSRMAYNNIQKSNFGNQSPSTSRPQSAIHHPNEPSVKIKWWLLGLVAILAVGLFWFFHTPAVETTAVQEFQNQMKQLQSKYQSQNEKLWKRGTTFLEKHLNSSLPRPQPAILLLTAAQDAAEVLKCLSEQIADAYSSFRSVRAIRIDGAGKAAQDSDLVKHEVDQELTDGFKNGQNAAVVHRFESLPAGSTLIFYKYCDHENAAFKDVALVLTVLLEEKTLEASLGLKEIEEKVRDFLKVKFTSSSTASSYNHMDPDKLNGLWSRISHLVLPVQPENTLKAGSCL
modifications: full-length

System: intracellular proteome of ENR+CD and ENR organoids
Test: LC-MS/MS TMT proteomics of ENR+CD versus ENR organoids
Type: cell-based, C57BL/6 mice
Conditions: for Average logFC: ENR+CD versus ENR organoids, sample pairs in aggregate (n=4, 2 technical replicates from two biological donors); for M1-1 Log2 Median Normalized / M1-2 Log2 Median Normalized / M2-1 Log2 Median Normalized / M2-2 Log2 Median Normalized: protein abundance ratio ENR+CD versus ENR organoids, LC-MS/MS TMT proteomics; for M1-1 Log2 Median Normalized: sample pair M1-1; for M1-2 Log2 Median Normalized: sample pair M1-2; for M2-1 Log2 Median Normalized: sample pair M2-1; for M2-2 Log2 Median Normalized: sample pair M2-2; for change: up = enriched in ENR+CD, down = enriched in ENR, FDR<0.05 and log fold change cut-off

| Molecule | Average logFC | M1-1 Log2 Median Normalized | M1-2 Log2 Median Normalized | M2-1 Log2 Median Normalized | M2-2 Log2 Median Normalized | change |
| --- | --- | --- | --- | --- | --- | --- |
| B1 | −1.932 | −1.931 | −0.989 | −2.1915 | −1.967 | down |
| B2 | 1.289 | 1.314 | 1.577 | 1.1265 | 1.14 | up |
| B3 | −1.212 | −1.61 | −1.013 | −0.7435 | −1.481 | down |
| B4 | 1.302 | 1.535 | 1.138 | 1.0115 | 1.523 | up |
| B5 | – | −1.383 | −1.488 | −0.4185 | −1.548 | down |
| B6 | −1.171 | −0.869 | −0.578 | −1.7495 | −1.486 | down |
| B7 | – | −1.606 | −1.392 | −2.1105 | −1.558 | down |
| B8 | −1.232 | −0.783 | −1.258 | −1.9425 | −0.946 | down |
| B9 | 1.217 | 1.233 | 1.176 | 1.0935 | 1.365 | up |
